Experimental data as given in PMC5428419.

Molecular target: biotinylated sRAGE from transgenic silkworms co-expressing BirA and fed biotin bait (human) (UniProt Q15109)
Assay: SPR; Biacore 2000; biotinylated sRAGE on SA sensor chip via the C-terminal biotin, about 560 RU; F-AGEs 0.25-4 uM injected, single-cycle kinetics, 30 uL/min, 25 C, PBS (-); 1:1 Langmuir model

Chain of UniProt Q15109 (Q15109 23-332): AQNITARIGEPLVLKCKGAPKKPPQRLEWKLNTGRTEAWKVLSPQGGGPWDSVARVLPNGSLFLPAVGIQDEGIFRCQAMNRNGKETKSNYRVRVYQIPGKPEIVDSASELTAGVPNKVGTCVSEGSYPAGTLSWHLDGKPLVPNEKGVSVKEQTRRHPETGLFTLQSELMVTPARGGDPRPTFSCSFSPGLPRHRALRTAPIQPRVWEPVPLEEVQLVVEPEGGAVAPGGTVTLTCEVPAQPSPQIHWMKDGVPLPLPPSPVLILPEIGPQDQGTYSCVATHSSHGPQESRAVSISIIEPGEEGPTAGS

Kd: 725 nM | koff: 0.00165 s⁻¹ | kon: 7250 M⁻¹ s⁻¹
Substance: fructose-BSA (fructose-derived AGE-BSA) (from UniProt P02769 25-607) (ligand)
